This experiment deals with T1, full-length HDM2 (NP_002383.2) (human, UniProt Q00987-11 1-497, limits assumed).
T1 construct: it was coated on the ELISA plate at 20 ug/ml; also called full-length MDM2
In words: ELISA; full-length HDM2 coated on plate, GST fusion at 0-5.5 uM, anti-GST-HRP detection (FIG. 4).

This note sets out measurements from patent US20160311878A1 (SAMSUNG ELECTRONICS, published 2016).

T1 sequence (Q00987 other isoform, or with tags, fused parts or gaps limits assumed): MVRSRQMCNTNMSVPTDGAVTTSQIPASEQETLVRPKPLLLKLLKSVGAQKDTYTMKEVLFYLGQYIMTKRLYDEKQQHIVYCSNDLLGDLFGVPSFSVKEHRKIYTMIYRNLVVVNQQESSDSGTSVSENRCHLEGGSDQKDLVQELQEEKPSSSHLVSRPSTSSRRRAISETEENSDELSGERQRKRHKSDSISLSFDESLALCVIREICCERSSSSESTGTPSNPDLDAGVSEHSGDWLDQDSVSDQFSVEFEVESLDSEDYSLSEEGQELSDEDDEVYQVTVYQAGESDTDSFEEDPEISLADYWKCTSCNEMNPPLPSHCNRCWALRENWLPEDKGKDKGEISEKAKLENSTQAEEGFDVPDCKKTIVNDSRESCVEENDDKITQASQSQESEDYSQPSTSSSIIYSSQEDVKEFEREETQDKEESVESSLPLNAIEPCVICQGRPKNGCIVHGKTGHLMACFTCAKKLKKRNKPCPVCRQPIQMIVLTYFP
Description: The well was incubated overnight at 4° C. Thereafter, bindings between other proteins were blocked with 300 ul of 3% skim milk w/PBS-T (at room temperature for 3 hours).
One hour after, the plate was washed with 300 uL of PBS-T, and treated with 100 uL of HRP conjugated-anti-GST antibody (Abcam, 1:2000). After the reaction at room temperature for one hour, the plate was treated with TMB substrate (Pierce, 100 uL) and left for 5 minute until coloring reaction occur, and then, treated with stop solution (Pierce, 100 uL). Thereafter, absorbance at 450 nm was measured using microwell reader (Molecular Device, 340PC384).

B1: GST-M11 (modified three-helix bundle protein M11, an a3D variant, fused to GST) (designed binder)
chain: MGSWAEFSQRLFAIYWRLLALGGSEAELAAFEKEIAAFESELQAYKGKGNPEVEALRKEAAAIRDELQAYRHN
notes: Tested as a GST fusion in ELISA and detected with an HRP-conjugated anti-GST antibody; GST is placed at the N-terminus from the name GST-M11 and the pGEX vector; not shown: GST carrier (from the GST cds of pGEX-4T3, GE Healthcare) and the vector junction between GST and M11
As for B1, the binding result is “binds”.

B2: GST-M25 (modified three-helix bundle protein M25, an a3D variant, fused to GST) (designed binder)
chain: MGSWFEFAWRLLEIKTRLQALGGSEAELAAFEKEIAAFESELQAYKGKGNPEVEALRFEAYWIRLELQAYRHN
notes: Tested as a GST fusion in ELISA and detected with an HRP-conjugated anti-GST antibody; GST is placed at the N-terminus from the name GST-M25 and the pGEX vector; not shown: GST carrier (from the GST cds of pGEX-4T3, GE Healthcare) and the vector junction between GST and M25
Turning to B2, the binding result is “binds”.
